Experimental data published in US20100209435 (published 2010).

Columns and labels:
[1] = molecular target: T1, FLAG-murine OPGL[158-316]/DE (mouse, UniProt O35235); experiment: ELISA
T1 chain: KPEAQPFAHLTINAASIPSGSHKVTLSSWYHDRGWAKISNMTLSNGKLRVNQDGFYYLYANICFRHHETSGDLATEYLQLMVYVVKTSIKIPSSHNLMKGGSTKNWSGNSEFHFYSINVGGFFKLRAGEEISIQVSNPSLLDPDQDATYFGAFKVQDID

[2] = molecular target: T2, CHO hOPGL 140 (human, UniProt O14788); experiment: SPR
T2 chain: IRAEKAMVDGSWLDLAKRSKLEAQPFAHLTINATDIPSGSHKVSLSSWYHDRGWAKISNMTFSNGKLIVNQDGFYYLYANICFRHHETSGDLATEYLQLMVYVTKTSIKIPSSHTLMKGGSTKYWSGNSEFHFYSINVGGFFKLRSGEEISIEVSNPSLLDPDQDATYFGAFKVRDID

[3] = molecular target: T3, E. coli mOPGL 158 (mouse, UniProt O35235); experiment: ELISA
T3 chain: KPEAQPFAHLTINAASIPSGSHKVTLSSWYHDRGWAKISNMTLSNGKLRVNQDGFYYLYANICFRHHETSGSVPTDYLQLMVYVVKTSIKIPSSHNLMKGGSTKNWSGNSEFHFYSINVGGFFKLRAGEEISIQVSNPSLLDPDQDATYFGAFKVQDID

[4] = molecular target: T3, E. coli mOPGL 158; experiment: SPR

| Binder | binding result [1] | Kd [2] [nM] | binding result [3] | binding result [4] |
| --- | --- | --- | --- | --- |
| 18B2 (antibody, V domains shown) VH: EVQLVQSGGGLVHPGGSLRLSCVGSRFTFSAYPMHWVRQAPGKGLEWVSGIGSGGGTNYADSVKGRFTISRDTAKNSLYLQMNSLRAEDMAVYYCARGRNSFDYWGQGTLVTVSS VL: DIQMTQSPSSLSASVGDRVTITCRASQGISTWLAWYQQKPEKAPKSLIYAASSLQSGVPSRFSGSGSGTDFTLTISSLQPEDFATYYCQQYNSYPPTFGQGTKVEIKR | no binding | 0.211 | no binding | – |
| 2E11 (antibody, V domains shown) VH: EVQLVQSGGDLVHPGGSLRLSCVGSGFTFSHYPLHWVRQAPGKGLEWISGIHTGGGTYYTDSVKGRFTISSDNAKNSLYLQMNTLRAEDMAVYYCARGRNSFDYWGQGTLVIVSS VL: DIQMTQSPSSLSASVGDRVTITCRASQGISSWLAWYQQKPEKAPKSLIYAASSLQSGVPSRFSGSGSGTDFTLTISSLQSEDFATYYCQQYNSYPPTFGQGTRLEIKR | no binding | 0.292 | – | no binding |
| 2D8 (antibody, V domains shown) VH: EVQLVQSGGGLVHPGGSLRLSCAGSGFTFSSYGMHWVRQAPGKGLEWVSGIGTGGGTYYADSVKGRFTISRDNVKNSLYLQMNSLRAEDMAVYYCARKNWGWFDYWGQGTLVTVSS VL: EIVLTQSPATLSLSPGERATLSCRASQSISSYLAWYQQKPGQAPRLLIYDASNRATGIPARFSGSGSGTDFTLTISSLEPEDFAVYYCQQRSKWPPYTFGQGTKLEIKR | – | 0.092 | no binding | – |
| 16E1 (antibody, V domains shown) VH: EVQLVQSGGGLVHPGGSLRLSCAGSGFTFSGHALHWVRQAPGKGLEWVSGIGTHGGTYYADSVKGRFTISRDNAKNSLFLQMNSLSAEDMAVYYCTRRNWGQFDYWGQGTLVTVSS VL: EIVLTQSPATLSLSPGERATLSCRASQSVSSYLAWYQQKPGQAPRLLIYDASNRATGIPARFSGSGSGTDFTLTISSLEPEDFAVYYCQQRSNWPPYTFGQGTKLEIKR | – | 0.0633 | – | no binding |
| 9H7 (antibody, V domains shown) VH: EVQLVQSGGGLVHPGGSLRLSCEGSGFTFSSNGMHWVRQTPGKGLEWVSGIGTAGGTYYADSVKGRFTISRDNVKKSLYLQMNSLRAEDMAIYYCVRKDWGWFDPWGQGALVTVSS VL: EIVLTQSPATLSLSPGERATLSCRASQSISSYLAWYQQKPGQAPRLLIYDASNRATGIPARFSGSGSGTDFTLTISSLEPEDFAVYYCQQRSKWPPYTFGQGTKLEIKR | – | 0.193 | – | no binding |
| 22B3 (antibody, V domains shown) VH: EVQLVQSGGGLVHPGGSLRLSCEGSGFTFSSNGMHWVRQTPGKGLEWVSGIGTAGGTYYADSVKGRFTISRDNVKKSLYLQMNSLRAEDMAIYYCVRKNWGWFDPWGQGALVTVSS VL: EIVLTQSPATLSLSPGERATLSCRASQSVNSYLAWFQQKPGQAPRLLIYDASNRATGIPARFSGSGSGTDFTLTISSLEPEDFAIYYCQQRSNWPPFTFGQGTKLEIKR | – | 0.0337 | – | no binding |
